The target of test [1] is T1, mouse TrkC LRRIg1, C-terminal Avitag, immobilized (mouse, UniProt Q6VNS1 32-302, biotin on the Avitag (enzymatic)).
T1 construct: mouse TrkC, leucine-rich repeat domain and first Ig domain, amino acids 32–302 of NCBI BC139764.1; not shown: Avitag (BirA recognition site), C-terminal, kept
The test can be described thus: SPR; equilibrium; biotinylated mouse TrkC LRRIg1 (wild type or D240A+D242A) immobilized on streptavidin-coated CM5 chips, human RPTP proteins as analytes; 10 mM HEPES pH 7.5, 150 mM NaCl, 0.01% Tween 20, 25 °C; in Fig. 6a also with increasing HS or heparin-dp10. The settings on record: both partners purified. A general note: SPR reads the build-up and loss of mass on a sensor chip optically.

The target in test [2] is T2, mouse TrkC LRRIg1 (soluble) (mouse, UniProt Q6VNS1 32-302).
T2 chain: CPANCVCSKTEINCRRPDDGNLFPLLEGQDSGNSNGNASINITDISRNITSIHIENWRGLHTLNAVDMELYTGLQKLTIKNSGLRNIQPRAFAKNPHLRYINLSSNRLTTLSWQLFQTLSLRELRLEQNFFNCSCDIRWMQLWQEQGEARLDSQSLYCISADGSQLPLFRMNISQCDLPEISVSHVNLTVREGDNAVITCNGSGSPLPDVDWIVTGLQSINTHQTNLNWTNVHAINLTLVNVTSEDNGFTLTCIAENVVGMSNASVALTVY
The test is described as follows: SPR.

Test [3] concerns the target T2, mouse TrkC LRRIg1 (soluble). The test can be described thus: SPR.
Test [4] has as its target T3, chicken TrkC LRRIg1cryst (crystallization protein) (chicken, UniProt Q91044 32-302, lack residues 63–77 | N163Q | N232Q | N259Q | N267Q | N294Q).
T3 construct: chicken TrkC LRRIg1, amino acids 32–302 of NCBI NM_205169.1, lacking residues 63–77; extra vector residues ETG (N-terminal) and GT (C-terminal) seen in the model; The methods name only the pHL-Avitag3 vector for this construct; also called cTrkC LRRIg1_(cryst)
T3 sequence (looked up): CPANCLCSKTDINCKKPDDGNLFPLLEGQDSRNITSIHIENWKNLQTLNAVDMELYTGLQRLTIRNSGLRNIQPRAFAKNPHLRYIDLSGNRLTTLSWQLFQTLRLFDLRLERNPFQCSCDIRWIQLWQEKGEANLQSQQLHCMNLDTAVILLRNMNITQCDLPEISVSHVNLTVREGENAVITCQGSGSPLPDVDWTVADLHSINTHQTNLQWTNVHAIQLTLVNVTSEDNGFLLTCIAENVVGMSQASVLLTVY
The test is described as follows: crystal structure; 2.5 Å, space group P2; 10% PEG 20k, 20% PEG MME 550, 0.1 M bicine/Tris pH 8.5, 0.03 M sodium nitrate, disodium hydrogen phosphate and ammonium sulphate; 20.5 °C. To be noted: both partners purified.

Test [5] addresses T4, TrkC (species and construct not stated; Supplementary Figs 5a,b and 8i) ( (mouse or chicken constructs …, UniProt Q6VNS1 32-825).
T4 construct: TrkC ectodomain construct; they may differ
The test can be described thus: SPR; equilibrium; RPTPσ and TrkC truncations (Supplementary Fig. 5a,b); species and who was immobilized not given. The settings on record: both partners purified.

The target of test [6] is T2, mouse TrkC LRRIg1 (soluble). The test is described as follows: SPR.
For test [7] the target is unchanged. The test can be described thus: SEC-MALS; Superdex200 HR10/30 in 10 mM Tris, 50 mM NaCl, pH 7.5; refractive index and multi-angle light scattering detectors. For orientation: In gel filtration, larger molecules generally elute earlier.
Test [8] addresses T5, mouse TrkC LRRIg1, C-terminal Avitag, immobilized (mouse, UniProt Q6VNS1 32-302, biotin on the Avitag (enzymatic)).
T5 chain: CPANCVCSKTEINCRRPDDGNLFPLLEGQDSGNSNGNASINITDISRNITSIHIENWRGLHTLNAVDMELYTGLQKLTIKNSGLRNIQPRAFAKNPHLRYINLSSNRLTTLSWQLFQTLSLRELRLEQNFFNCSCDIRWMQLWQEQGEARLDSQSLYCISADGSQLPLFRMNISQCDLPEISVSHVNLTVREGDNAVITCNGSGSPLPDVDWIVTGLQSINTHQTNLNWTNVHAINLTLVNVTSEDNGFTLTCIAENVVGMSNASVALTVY
The test is described as follows: SPR.

For test [9], the target named is T6, mouse TrkC LRRIg2 (Mus musculus).
T6 chain: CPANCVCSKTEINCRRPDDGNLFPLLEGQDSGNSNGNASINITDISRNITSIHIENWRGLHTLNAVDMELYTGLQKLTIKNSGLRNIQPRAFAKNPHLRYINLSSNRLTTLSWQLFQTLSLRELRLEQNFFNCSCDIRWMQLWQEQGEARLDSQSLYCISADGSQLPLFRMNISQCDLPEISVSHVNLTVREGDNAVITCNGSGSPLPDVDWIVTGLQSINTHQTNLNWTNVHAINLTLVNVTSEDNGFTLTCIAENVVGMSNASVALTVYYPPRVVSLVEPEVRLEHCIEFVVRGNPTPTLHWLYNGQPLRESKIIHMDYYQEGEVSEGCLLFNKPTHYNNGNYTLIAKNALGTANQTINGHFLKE
The test is described as follows: SPR.

Test [10] concerns the target T7, chicken RPTPσ Ig1–3, C-terminal Avitag, immobilized (chicken, UniProt F1NWE3 29-316, biotin on the Avitag (enzymatic)).
T7 construct: chicken RPTPσ Ig1–3, amino acids 29–316 of NCBI NM_205407.1; not shown: Avitag (BirA recognition site), C-terminal, kept
T7 sequence (looked up): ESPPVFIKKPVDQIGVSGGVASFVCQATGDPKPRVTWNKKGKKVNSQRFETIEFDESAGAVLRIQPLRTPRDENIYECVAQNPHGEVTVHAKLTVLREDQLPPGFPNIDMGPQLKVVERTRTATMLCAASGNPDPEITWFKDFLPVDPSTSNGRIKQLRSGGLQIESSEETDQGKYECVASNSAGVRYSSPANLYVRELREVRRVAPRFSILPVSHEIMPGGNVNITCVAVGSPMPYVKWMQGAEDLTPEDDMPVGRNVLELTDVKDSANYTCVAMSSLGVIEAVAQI
The test is described as follows: SPR; equilibrium; biotinylated chicken RPTPσ Ig1–3 (wild type or mutants) immobilized on streptavidin-coated CM5 chips, chicken TrkC LRRIg1 as analyte; 10 mM HEPES pH 7.5, 150 mM NaCl, 0.01% Tween 20, 25 °C. To be noted: both partners purified.

Test [11] addresses T8, chicken RPTPσ N73S+S74N (RPTPδ-like) Ig1–3, C-terminal Avitag (chicken, UniProt F1NWE3 29-316, N73S | S74N, biotin on the Avitag (enzymatic)).
T8 construct: chicken RPTPσ Ig1–3, amino acids 29–316 of NCBI NM_205407.1; not shown: Avitag (BirA recognition site), C-terminal, kept
T8 sequence (looked up): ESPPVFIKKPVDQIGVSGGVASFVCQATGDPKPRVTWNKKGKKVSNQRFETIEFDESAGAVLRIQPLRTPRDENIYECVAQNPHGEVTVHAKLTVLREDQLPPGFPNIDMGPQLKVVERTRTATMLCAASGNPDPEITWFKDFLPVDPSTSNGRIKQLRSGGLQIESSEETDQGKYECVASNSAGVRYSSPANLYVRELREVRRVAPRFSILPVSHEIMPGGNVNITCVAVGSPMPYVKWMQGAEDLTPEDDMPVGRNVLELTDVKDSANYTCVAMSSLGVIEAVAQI
The test is described as above. To be noted: both partners purified.

Where two headings read alike, the source gives them in different places.

B1: human RPTPδ sEcto (domain or fragment)
chain: ETPPRFTRTPVDQTGVSGGVASFICQATGDPRPKIVWNKKGKKVSNQRFEVIEFDDGSGSVLRIQPLRTPRDEAIYECVASNNVGEISVSTRLTVLREDQIPRGFPTIDMGPQLKVVERTRTATMLCAASGNPDPEITWFKDFLPVDTSNNNGRIKQLRSESIGGTPIRGALQIEQSEESDQGKYECVATNSAGTRYSAPANLYVRELREVRRVPPRFSIPPTNHEIMPGGSVNITCVAVGSPMPYVKWMLGAEDLTPEDDMPIGRNVLELNDVRQSANYTCVAMSTLGVIEAIAQITVKALPKPPGTPVVTESTATSITLTWDSGNPEPVSYYIIQHKPKNSEELYKEIDGVATTRYSVAGLSPYSDYEFRVVAVNNIGRGPPSEPVLTQTSEQAPSSAPRDVQARMLSSTTILVQWKEPEEPNGQIQGYRVYYTMDPTQHVNNWMKHNVADSQITTIGNLVPQKTYSVKVLAFTSIGDGPLSSDIQVITQTGVPGQPLNFKAEPESETSILLSWTPPRSDTIANYELVYKDGEHGEEQRITIEPGTSYRLQGLKPNSLYYFRLAARSPQGLGASTAEISARTMQSKPSAPPQDISCTSPSSTSILVSWQPPPVEKQNGIITEYSIKYTAVDGEDDKPHEILGIPSDTTKYLLEQLEKWTEYRITVTAHTDVGPGPESLSVLIRTNEDVPSGPPRKVEVEAVNSTSVKVSWRSPVPNKQHGQIRGYQVHYVRMENGEPKGQPMLKDVMLADAQWEFDDTTEHDMIISGLQPETSYSLTVTAYTTKGDGARSKPKLVSTTGAVPGKPRLVINH
Broadly, the Kd is the concentration at which binding is half-saturated. The low end stands for tighter binding, the high end for weaker binding. Consider B1, for which the dissociation constant (Kd) in test [1] is over 22 µM.

B2: RPTPσ Ig1–3 (species not stated; Supplementary Figs 5a and 8i) (domain or fragment)
chain: EEPPRFIKEPKDQIGVSGGVASFVCQATGDPKPRVTWNKKGKKVNSQRFETIEFDESAGAVLRIQPLRTPRDENVYECVAQNSVGEITVHAKLTVLREDQLPSGFPNIDMGPQLKVVERTRTATMLCAASGNPDPEITWFKDFLPVDPSASNGRIKQLRSGALQIESSEETDQGKYECVATNSAGVRYSSPANLYVRVRRVAPRFSILPMSHEIMPGGNVNITCVAVGSPMPYVKWMQGAEDLTPEDDMPVGRNVLELTDVKDSANYTCVAMSSLGVIEAVAQITVKSLPKA
B2: the Kd in [2] worked out at 551 nM; in [3] it was 580 nM.

B3: chicken RPTPσ Ig1–2 (as found in the 2.5 Å complex crystals) (domain or fragment)
chain: ESPPVFIKKPVDQIGVSGGVASFVCQATGDPKPRVTWNKKGKKVNSQRFETIEFDESAGAVLRIQPLRTPRDENIYECVAQNPHGEVTVHAKLTVLREDQLPPGFPNIDMGPQLKVVERTRTATMLCAASGNPDPEITWFKDFLPVDPSTSNGRIKQLRSGGLQIESSEETDQGKYECVASNSAGVRYSSPANLYVR
notes: chicken RPTPσ; the crystallization protein was Ig1–3 (amino acids 29–316 of NM_205407.1); the cleavage site in the Ig2–Ig3 linker is not determined; also called cRPTPσ Ig1-2; source: HEK-293S GnTI− cells as Ig1–3, purified; Ig3 absent from the crystals, proteolytic cleavage the most likely reason
For orientation: stoichiometry N means a count of units in the complex or per binding partner. As for B3, in test [4], the “stoichiometry N” value was 1.

B4: RPTPσ Ig1–2 (species not stated; Supplementary Fig. 5a) (domain or fragment)
chain: EEPPRFIKEPKDQIGVSGGVASFVCQATGDPKPRVTWNKKGKKVNSQRFETIEFDESAGAVLRIQPLRTPRDENVYECVAQNSVGEITVHAKLTVLREDQLPSGFPNIDMGPQLKVVERTRTATMLCAASGNPDPEITWFKDFLPVDPSASNGRIKQLRSGALQIESSEETDQGKYECVATNSAGVRYSSPANLYVRV
B4 yielded a Kd in test [5] of 2400 nM.

B5: human RPTPσ Ig1-FN3 (domain or fragment)
chain: EEPPRFIKEPKDQIGVSGGVASFVCQATGDPKPRVTWNKKGKKVNSQRFETIEFDESAGAVLRIQPLRTPRDENVYECVAQNSVGEITVHAKLTVLREDQLPSGFPNIDMGPQLKVVERTRTATMLCAASGNPDPEITWFKDFLPVDPSASNGRIKQLRSGALQIESSEETDQGKYECVATNSAGVRYSSPANLYVRVRRVAPRFSILPMSHEIMPGGNVNITCVAVGSPMPYVKWMQGAEDLTPEDDMPVGRNVLELTDVKDSANYTCVAMSSLGVIEAVAQITVKSLPKAPGTPMVTENTATSITITWDSGNPDPVSYYVIEYKSKSQDGPYQIKEDITTTRYSIGGLSPNSEYEIWVSAVNSIGQGPPSESVVTRTGEQAPASAPRNVQARMLSATTMIVQWEEPVEPNGLIRGYRVYYTMEPEHPVGNWQKHNVDDSLLTTVGSLLEDETYTVRVLAFTSVGDGPLSDPIQVKTQQGVPGQPMNLRAEARSETSITLSWSPPRQESIIKYELLFREGDHGREVGRTFDPTTSYVVEDLKPNTEYAFRLAARSPQGLGAFTPVVRQRTL
Turning to B5, the equilibrium dissociation constant (Kd) in test [6] stood at 468 nM; in [8], 278 nM; in test [9], 202 nM. The same molecule gave a stoichiometry N in test [7] of 1.

B6: chicken TrkC LRRIg1 (analyte of Fig. 3c) (domain or fragment)
chain: CPANCLCSKTDINCKKPDDGNLFPLLEGQDSGSSNGNTSINITDISRNITSIHIENWKNLQTLNAVDMELYTGLQRLTIRNSGLRNIQPRAFAKNPHLRYIDLSGNRLTTLSWQLFQTLRLFDLRLERNPFQCSCDIRWIQLWQEKGEANLQSQQLHCMNLDTAVILLRNMNITQCDLPEISVSHVNLTVREGENAVITCQGSGSPLPDVDWTVADLHSINTHQTNLQWTNVHAIQLTLVNVTSEDNGFLLTCIAENVVGMSQASVLLTVY
On to B6, for which the Kd in [10] is 3.5 µM; in [11], over 21 µM.

The values are drawn from article PMC4239663, “Structural basis for extracellular cis and trans RPTPσ signal competition in synaptogenesis” (Nature Communications, 2014).
